This data set can be described thus: yeast display, Sf9 membrane polyspecificity reagent, FACS + sequencing; frameworks hold sequencing errors. Summed up:
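Genes from sorted yeast were amplified by colony PCR, read by MiSeq 2 × 250 sequencing and filtered on CDR length. These cells carried a synthetic nanobody library in Saccharomyces cerevisiae BJ5465 and were sorted by FACS into low and high (top ~1%) gates on anti-HA and streptavidin fluorescence. Polyreactivity is labelled according to the gate of origin.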
In the case of “QVQLVESGGGLVQAGCSLRLSCAASGFIILNYTMGLYRQAPGKERELVAAISNGSDRTYYADSVKGRFTISRDNAKNTVYLQMISLKTEDTAVYYCAKDRDFSSPPTESGFDYWGQGTQVNVSS”, the “polyreactivity (PSR sort gate)” value is listed as “low polyreactivity”.

As to “QVQLVESGGVLVQAGGSLRLSCAASGFTFLVYAMGWYRQAPGKERELLAAITSGSSTTYADSVKGRFTISRDNAKNTVYLQMNSLKPEDTAVYYCAARPRLDVLVKRFYYWGQGTQVTVSS”, the “polyreactivity (PSR sort gate)” value was “high polyreactivity”.

As for “QVQLVESGGGLVQAGGSLRLSCAASGRIFRYYTMGWYRQEPGKERELVAAITGSGGSTYYADSVKGRFTISRDNAKTTVYLQMNSLKPEDTAVYYCAARGYLDMGYWGQGTQVTVSS”, the “polyreactivity (PSR sort gate)” value is “high polyreactivity”.

Turning to “QVQLVESGGGLVQAGCSLRLSCAASGSIFPANAMGWYRQAPGKEWEFVAAINWSTGTTYNADSVKGRFTISRDNAKNTVYLQMTSLKPEDTAFYHCAAGDWYSGNTTHFYYWGQGTQVTVSS”, the “polyreactivity (PSR sort gate)” value was “low polyreactivity”.

As to “QVQLVESGGGLVQAGGSLRLSCAASGIIFYVYAMGWYRQAPGKERELVAAISSGGRTNYADSVKGRFTISRDNAKNTVYLQMNSLKPEDTAVYYCAAKSVRRRLGYWGQGTQVTVSS”, the “polyreactivity (PSR sort gate)” value was “high polyreactivity”.

Take “QVQLVESGGGLVQAGGSLRLSCAASGRTFVRYAMGWYRQAPGKERELVAAISWSGGSTYYADSVKGRFTISRDNAKNTVYLQMNSLKPEDTAVYYCATLSAWKASSYDYWGQGTQVTVSS”: the “polyreactivity (PSR sort gate)” value is “high polyreactivity”.

As to “QVQLVESGGGLVQAGGSLRLSCAASGRNFTRNAMGWYRQAPGKEREFVAAISYRGGSTYYADSVKGRFTISRDNAKNTVYLQMNSLKPEDSAVYYCAKRIYPYYGELYWGQGTQVTVSS”, the “polyreactivity (PSR sort gate)” value is “high polyreactivity”.

Take “QVQLVESGGGLVQAGGSLRLSCAASGLTFSRYAMGWYRQAPGKERELVAAISSSGTRTYYADSVKGRFTISPDNPKNTVYLQMNSLKPEDTAVYYCNAYYAPRGYGYWGQGTQVTVSS”: the “polyreactivity (PSR sort gate)” value is “high polyreactivity”.

As to “QVQLVESGGGLVQAGGSLRLSCADSGSIFDIYAMGWYRQAPGKERELVADISWSGGSTYYADSVKGRFTISRDNAKNTVYLQMNSLKPEDTAVYYCAADSSRRIGEDYWGQGTQVTVSS”, the “polyreactivity (PSR sort gate)” value was “low polyreactivity”.

For the sequence “QVHLVESGGGLVQAGGSLRLICAASGSIFPRNAMGWYRQAPGKERELVARINSGGTTKYADSVKGRFTISRDNAKNTVFLQMNSLKPEDTAVYYCNADTYILDPLRKSYGYDYWGQGTQVTVSS”, the “polyreactivity (PSR sort gate)” value is recorded as “low polyreactivity”.

As to “QVQLVESGGGLVQAGGSLRLSCAASGFTFSIYAMGWYRQAPGKERELVAAISGRGSSTYYADSVKGRFTISRDNAKNTVYLQMNSLKPEDTAVYYCKKFHHAYFSSVYSYAGGYWGQGTQVTVSS”, the “polyreactivity (PSR sort gate)” value is recorded as “high polyreactivity”.

Consider “QVQLVESGGGLVQAGGSLRLSCAASGLIFRRYAMGWYIQAPGKEREFVAAIRYTGGGTYYADSVKGRFTISRDNAKNTVYLQMNRLKPEDTAVYYCNTVEYRWGYISKVPKYDYWGQGTQVTLSS”, for which the “polyreactivity (PSR sort gate)” value is given as “high polyreactivity”.

For “QVQLVESGGGLVQAGGILRLSFAASGRIFTHYAMAGYRPAPGKERELVAAIRYSGGRTYYADSVKGRFTLSRDNAKNTVYLQMNSRKPEDTAVYYCAAEGFGGSFRSFYTIYDYWGQGTLVTVSS”, the “polyreactivity (PSR sort gate)” value is “high polyreactivity”.

Turning to “QFQLVESGGGLVQAGGSHRLICAASGRTFPYYAKGWYRQAPGKERELVATINTGTSTNYADSVKGRFTISRDNANNTVYLQMHSLKPEDTAVYYCAAATTYGKSEYDYWGQGTQVTVSS”, the “polyreactivity (PSR sort gate)” value is “high polyreactivity”.

Take “QVQLVESGGGLVQAGGSLRLSCAASGRIFYGYAMGWYRQAPGKERELVAAISWRGDSTYYADSVKGRFTISRDNAKNTVYLQMNSLKPEDTAVYYCAARRPGYYYPSKFDYWGQGTQVTVSS”: the “polyreactivity (PSR sort gate)” value is listed as “high polyreactivity”.

Consider “QVQLVESGAGLVQAGGSLRVSCAASGLIFAWYAMGWYRQAPGKERELVATIDVSGGTYYADSVKGRFTISRDNAQNTVYLQMNSLNPEDTAVYYCAAGVTYWYDAPEYYYWGQVTQVTVSS”, for which the “polyreactivity (PSR sort gate)” value is given as “high polyreactivity”.

Take “QVQLVESGGGLVQAGGSLRLSCAASGSILQSYAMGWYRQAPGKERELVAAISGSGGSTYYADSVKGRFTISRDNAKNTVYLQMNSLKPEDTAVYYCAKGPLYRTSRGEFGYWGQGTQVTVAS”: the “polyreactivity (PSR sort gate)” value was “low polyreactivity”.

Turning to “QVQLVESGGGLVQAGGSLRLSCAASGFTFDFYAMGWYRQAPGKERELVAAINWSGSSTYYADSVKGRFTISRDTAKNTVYLQMNSLKPEDTAVYYCAAQVYYTLFPDVYTMYYWGQGTQVTVSS”, the “polyreactivity (PSR sort gate)” value was “high polyreactivity”.

On to “QVQLVESGGGLVQAGGSLRLSCAASGNIFYRNGMGWYRQAPGKEREFVAAISRRGGSTYYADSVKGRFTISRDNAKNTVYLQMNSLKPEDTAVYYCATRYWPTNKGEYWGQGTQVTVSS”, for which the “polyreactivity (PSR sort gate)” value is given as “high polyreactivity”.

“QVQLVESGGGLVQAGGSLRLSCAASGRTFDPYAMGWYRQAPGKERELVAAITSSGGSTYYADSVKGRFTISRDNAKNTVYLQMNSLKPEDTAVYYCAAEQRDFIWWFYYWGQGTQVTVSS”: the “polyreactivity (PSR sort gate)” value is “high polyreactivity”.

Take “QVQLVESGGVLVQAGGSLRLSCAASGRTFAYNTMGWYRQAPGKEREVVAAITWSGGGTYYADSVKGRFTISRDNAKKTVYLQLNSLKPEDTAVYYCAVEYATPRARFRYYYWGQGTKVTVSS”: the “polyreactivity (PSR sort gate)” value is recorded as “high polyreactivity”.

Turning to “QDQLVESGGGLVQAGGSLRLSCAASRSTFYHNVMGWYRQAPGKERELVASIDTGDSTNYADSVKGRFTISRDNAKNTVYLQMNSLKPEDTAVYYCAAEIPRRWASFATLWYDYWGQGTQVTVSS”, the “polyreactivity (PSR sort gate)” value is reported as “low polyreactivity”.

Take “QVQLVESGGGLVQAGGSLRLSCAASGFIFYPYAMGWYRQAAGKERELVASIRRSTASTYYADSVKGRFTISRDNAKNTVYLQMNSLKPEDTAVYYCAARYRSYPKEYDYWGQGTEVTVSS”: the “polyreactivity (PSR sort gate)” value is “high polyreactivity”.

For “QVQLVESAGGLVQAGGSLRLSCAASGSTQVIYHMGWNRQAPGNERYIVAAITYGGGRTYYADSVKGRFTISSDNAKNTVYLQMNSLKPEDTAYYYCAAYSYYYTWNPGYWGQGTQVTVSS”, the “polyreactivity (PSR sort gate)” value is given as “high polyreactivity”.

As for “QVQLVESGGGLVQAGGSLRLSCAASGIILDPNAMGGYRQAPGKERELVAGITRSGVSTYYADSVKGRFTISRDNAKNTVYLQMKSLKPEDTAVYYCAKDRIYGSKGEDDDYWGQGTQVTVSS”, the “polyreactivity (PSR sort gate)” value is given as “low polyreactivity”.

Consider “QVQLVESGGGLVQAGGSLRLSCADSGRTFYRNAMGWYRQAPGKERELVAAITWSAGSTYYADSVKGRFTISRDNAKNTVYLQMNSLKPEDSAVYYCAKYPSKSYVPGDYWGQGTQVTVSS”, for which the “polyreactivity (PSR sort gate)” value is on record as “low polyreactivity”.

On to “QVQLVESGGGLVQAGGSLRLICAASGSTFYHNVMGWYRQAPGKERELLASIYRGGSTYYADSVKGRFTISRDNAKNTVYVQMNSLKPEDTAVYYCAADLSSDSSYSGYDYSGQGTQVTVSS”, for which the “polyreactivity (PSR sort gate)” value is “low polyreactivity”.

As to “QVQLQESGGGLVQAGGSLRMSCAASGTIVSEANMGWYRQAPGKERELVATIGQGSTTNYADSVKGRFTISRDNAKNTVYLQMNSLKPEETAVYYCAVVTVDPVGFVYWGQGTQVTVSS”, the “polyreactivity (PSR sort gate)” value was “low polyreactivity”.

For “QFQLVESGGGLVQARGRLRLSCAASGSIFSYNAMGWYRQAPGKERELVARISSSGSTNYADSVKGRFTISRDNAKNTVYIQMNSLKPEDTAVYYCNKDPYWPSWTRRRREYYYWGQGTQVTVSS”, the “polyreactivity (PSR sort gate)” value is recorded as “high polyreactivity”.

Turning to “QVQLVESGGGLVQAGGSLRLSCAASGFTFTSNAMGWYRQAPGKERELVAAITSSGGITYYADSVKGRFTISRDNAKNTVYLQMNSLKPEDTAVYYCAASISSYNSPGYGYWGQGTQVTVSS”, the “polyreactivity (PSR sort gate)” value is listed as “low polyreactivity”.

“QVQLVESGGGLVQAGGSLRLSCAATGFIFPINAMGWYRQAPGKERELVAAITGGGSTSYADSVKGRFTISRDNAKNTVYLQMNSLKPEDTAVYYCATDRLTYTKYGYWGQGTQVTVSS”: the “polyreactivity (PSR sort gate)” value is reported as “low polyreactivity”.

Consider “QVQLVESGGGLVHAGGSLRLSCAASGYTFDSYTMGWYRQAPGKERELVAAISGRGGSTYYADSVKGRFTISRDNAKNTVYIQMNSLKPEDTAVYYCNTYPPIGYDYWGQGTQVTVSS”, for which the “polyreactivity (PSR sort gate)” value is “low polyreactivity”.

With “QVQLVESGGGLVQAGGSLRLSCAASGRIFYVYAMGWYRQAPGKERELVADITRDGNTNYADSVKGRFTISRDNAKNTVYLQMNSLKPEDTAVYYCAAGGYPGTTYYGYDYWGQGTQVTVSS”, the “polyreactivity (PSR sort gate)” value is reported as “low polyreactivity”.

On to “QDQLVESGGGLVQAGGSHRLSCAASGSTFLGNTMGWYRQAPRKERELVAAISSSGTSTYYADSVKGRFTISRDNAKNTVYLQMNSLKPEDTAVYYCAAVIRVWWGFGDKYDYWGQGTQVTVAS”, for which the “polyreactivity (PSR sort gate)” value is reported as “high polyreactivity”.

“QVQLVESGGGLVQAGGSLRLSCAASGSTFKSYAMGWYRQAPGKERELVAAISYRGGSTYYADSVKGRFTISRDNAKNTVYLQMNSLKPEDTAVYYCAAVKLYSYYYWGQGTQVTVSS”: the “polyreactivity (PSR sort gate)” value is on record as “high polyreactivity”.

Take “QVQLVESGGGLVQAGGSLRLSCAASGSIFRSYAMGWYRQAPGKERELVASITRSSGSTYYADSVKGRFTISRDNAKNTVYLQMNSLKPEDTAVYYCNAVVSKSRRFRVDYWGQGTQVTVSS”: the “polyreactivity (PSR sort gate)” value was “high polyreactivity”.

Consider “QVQLVESGGGLVQAGGSLRLSCAASGLIFRYYAKGWYRQAPGKERELFAAISLRGGSTYYADSVKGRFTISRDNAKNNVYLQMNSLKPEDTAVYYCAAQWASFSVANLYGYWGQGTQVTVSS”, for which the “polyreactivity (PSR sort gate)” value is on record as “high polyreactivity”.

Regarding “QVQLVESGGGLVQAGGSLRLSCAASGFIFYYNAMVWYRQAPGKERELVAAITDDGGGTYYADSVKGRFTISRDNAKNTVYLQMNSLKPEDTAVYYCAADGYNYEHDYWGQGTQVTVSS”, the “polyreactivity (PSR sort gate)” value was “low polyreactivity”.

For “QVQLVESGGGLVQAGGSLRLSCAASGFTFRYYTMGWYRQAPGKEREFVAAIRGGGSSTYYADSVKGRFTISRDNAKNTVYLQMTSLKPEDTAVYSCAAVTSQLYGYRYYYGGQGTQVTVSS”, the “polyreactivity (PSR sort gate)” value is “high polyreactivity”.

“QVQLVESGGGLVQAGGSLRLSCAASGLIFDRYPMGWYRQAPGKERELVAAINRSGGTTYYADSVKGRFTISRDNAKNTVYLQMNSLKPEDTAVYYCAARWQRYRSGTGDYWGQGTQVTVSS”: the “polyreactivity (PSR sort gate)” value is “high polyreactivity”.

Regarding “QVQLVESGGRLVQAGGSLRLSCAASGSTFWESVLGWNRQSPGKDRELVAAITTNDDSTYYADSVKGRFTISRDNAKNTVYLQMNSLKPEDTAVYYCNAVQITGQFDYWGQGTQVTVSS”, the “polyreactivity (PSR sort gate)” value is on record as “low polyreactivity”.

(Values after the nanobody polyreactivity screen of Harvey et al. (2022).)
